According to article PMC3423370:

What was measured:
[1] = biological target: Biomphalaria glabrata acetylcholine-binding protein (BgAChBP), native rosette protein from hemolymph (Biomphalaria glabrata); assay: cryo-EM structure; native rosette protein at 1.2 mg/ml vitrified on C-flat holey carbon grids; 9770 single particles, icosahedral symmetry, resolution ~6 Å (FSC0.5 5.9 Å)
[2] = biological target: Biomphalaria glabrata acetylcholine-binding protein (BgAChBP), native rosette protein from hemolymph (Biomphalaria glabrata); assay: non-reducing SDS-PAGE; chromatographically enriched native BgAChBP under non-reducing against reducing conditions; disulfide-linked subunit dimers
[3] = biological target: Recombinant BgAChBP2 (Biomphalaria glabrata); assay: negative-stain electron microscopy; refolded recombinant protein, 20 mM Tris-HCl pH 8.0 with 50 mM imidazole; 2% uranyl acetate; for BgAChBP1 a 3D reconstruction (~20 Å) from ~3000 negatively stained particles

| Substance | stoichiometry N [1] | stoichiometry N [2] | stoichiometry N [3] |
| --- | --- | --- | --- |
| Biomphalaria glabrata acetylcholine-binding protein (BgAChBP), native rosette protein from hemolymph (complex) | 60 | 2 |  |
| Recombinant BgAChBP2 (natural protein) |  |  | 5 |
